Laboratory results taken from publication doi:10.1101/2022.05.05.490787.
Where “and” joins values, the source holds several entries; their conditions need not be identical. Equal entries are not always repeated.

Tests used:
[1] = target: HA-Cdt1 phosphomimetic (2E3D) (human) (UniProt Q9H211); test: co-IP
GFP-Cdt1^2E3D (human) = GFP-Cdt1^2E3D (human) (UniProt Q9H211); test: BLI
[2] = target: GFP-tagged Cdt1 (92-546 a. a.) (human) (UniProt Q9H211); test: BLI
[3] = target: GFP-tagged Cdt1 deletion fragment 410-546 (human) (UniProt Q9H211); test: BLI
[4] = target: GFP-tagged Cdt1 deletion fragment 92-410 (human) (UniProt Q9H211); test: BLI

| % reduction of co-precipitated Ska1 against Cdt1-WT [1] | Kd (GFP-Cdt1^2E3D (human)) [nM] | Kd [2] [nM] | Kd [3] [nM] | Kd [4] [nM] | Substance |
| --- | --- | --- | --- | --- | --- |
| 50% and 55% |  |  |  |  | SKA1 (endogenous) (from UniProt Q96BD8 1-255) (natural protein) |
|  | 185 | 70 | 360 | 220 | Ska1 complex (analyte of the BLI experiments) (from UniProt Q96BD8;Q8WVK7) |
